From patent US20250361312A1 (INVOX PHARMA, published 2025)
Where a chain is given by its changes, count along the chain named.

T1: mouse OX40 receptor, cell-expressed (DO11.10-mOX40) (mouse, UniProt P47741 20-272)
T1 sequence: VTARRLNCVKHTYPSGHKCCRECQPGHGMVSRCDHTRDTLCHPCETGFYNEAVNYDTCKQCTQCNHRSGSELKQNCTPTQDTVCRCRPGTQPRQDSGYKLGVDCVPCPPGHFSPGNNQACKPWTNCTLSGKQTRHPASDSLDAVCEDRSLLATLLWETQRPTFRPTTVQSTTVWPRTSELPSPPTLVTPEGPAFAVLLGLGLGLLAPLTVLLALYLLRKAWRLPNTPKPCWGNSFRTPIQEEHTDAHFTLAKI

T2: human TNFRI (human, UniProt P19438 30-211, limits assumed)
T2 construct: Amine-coupled to a CM5 chip
T2 sequence (looked up): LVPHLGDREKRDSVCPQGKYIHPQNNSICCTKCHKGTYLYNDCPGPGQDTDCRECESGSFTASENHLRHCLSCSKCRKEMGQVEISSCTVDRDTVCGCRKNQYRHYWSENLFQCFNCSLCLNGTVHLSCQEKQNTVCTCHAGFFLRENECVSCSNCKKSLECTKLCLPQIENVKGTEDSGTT

T3: human NGFR (human, UniProt P08138 29-250, limits assumed)
T3 construct: Amine-coupled to a CM5 chip
T3 sequence (looked up): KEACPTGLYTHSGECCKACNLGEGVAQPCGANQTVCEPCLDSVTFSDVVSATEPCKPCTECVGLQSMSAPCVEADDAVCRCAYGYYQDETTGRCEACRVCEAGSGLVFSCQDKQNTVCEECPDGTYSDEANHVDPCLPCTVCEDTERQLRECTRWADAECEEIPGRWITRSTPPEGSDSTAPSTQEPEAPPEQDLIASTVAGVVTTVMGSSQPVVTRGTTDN

T4: human TNFRII (human, UniProt P20333 23-257, limits assumed)
T4 construct: Amine-coupled to a CM5 chip
T4 sequence (looked up): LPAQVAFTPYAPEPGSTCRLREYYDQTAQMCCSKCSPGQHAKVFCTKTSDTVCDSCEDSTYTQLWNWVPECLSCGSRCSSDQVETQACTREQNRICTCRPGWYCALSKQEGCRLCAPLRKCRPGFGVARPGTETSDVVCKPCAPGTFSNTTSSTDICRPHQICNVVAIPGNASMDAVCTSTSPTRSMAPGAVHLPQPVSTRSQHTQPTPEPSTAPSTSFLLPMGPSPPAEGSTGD

T5: human OX40 receptor, cell-expressed (DO11.10-hOX40) (human, UniProt P43489 29-277)
T5 construct: also called CD134; TNFRSF4
T5 sequence: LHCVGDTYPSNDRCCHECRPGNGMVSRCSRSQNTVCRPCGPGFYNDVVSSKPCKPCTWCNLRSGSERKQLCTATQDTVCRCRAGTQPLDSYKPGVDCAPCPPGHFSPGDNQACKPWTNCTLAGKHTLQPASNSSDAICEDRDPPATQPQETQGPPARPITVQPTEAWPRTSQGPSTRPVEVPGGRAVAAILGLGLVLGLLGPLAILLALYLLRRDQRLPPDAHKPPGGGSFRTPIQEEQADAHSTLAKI

B1: G1AA/OX86 (antibody, human IgG1, kappa, L234A L235A, V domains shown)
VH: QVQLKESGPGLVQPSQTLSLTCTVSGFSLTGYNLHWVRQPPGKGLEWMGRMRYDGDTYYNSVLKSRLSISRDTSKNQVFLKMNSLQTDDTAIYYCTRDGRGDSFDYWGQGVMVTVSS
VL: DIVMTQGALPNPVPSGESASITCRSSQSLVYKDGQTYLNWFLQRPGQSPQLLTYWMSTRASGVSDRFSGSGSGTYFTLKISRVRAEDAGVYYCQQVREYPFTFGSGTKLEIKR
notes: also called anti-mouse OX40 mAb OX86 in a human IgG1 backbone with the LALA mutation
B2: FS20-22-47AA/4420 (bispecific antibody, human IgG1, kappa, L234A L235A)
heavy: EVKLDETGGGLVQPGRPMKLSCVASGFTFSDYWMNWVRQSPEKGLEWVAQIRNKPYNYETYYSDSVKGRFTISRDDSKSSVYLQMNNLRVEDMGIYYCTGSYYGMDYWGQGTSVTVSSASTKGPSVFPLAPSSKSTSGGTAALGCLVKDYFPEPVTVSWNSGALTSGVHTFPAVLQSSGLYSLSSVVTVPSSSLGTQTYICNVNHKPSNTKVDKKVEPKSCDKTHTCPPCPAPEAAGGPSVFLFPPKPKDTLMISRTPEVTCVVVDVSHEDPEVKFNWYVDGVEVHNAKTKPREEQYNSTYRVVSVLTVLHQDWLNGKEYKCKVSNKALPAPIEKTISKAKGQPREPQVYTLPPSRDEYWDQEVSLTCLVKGFYPSDIAVEWESNGDEQFAYKTTPPVLDSDGSFFLYSKLTVDQYRWSPGDYFSCSVMHEALHNHYTQKSLSLSPG
light: DVVMTQTPLSLPVSLGDQASISCRSSQSLVHSNGNTYLRWYLQKPGQSPKVLIYKVSNRFSGVPDRFSGSGSGTDFTLKISRVEAEDLGVYFCSQSTHVPWTFGGGTKLEIKRTVAAPSVFIFPPSDEQLKSGTASVVCLLNNFYPREAKVQWKVDNALQSGNSQESVTEQDSKDSTYSLSSTLTLSKADYEKHKVYACEVTHQGLSSPVTKSFNRGEC
notes: Human IgG1 with anti-FITC 4420 Fab and LALA; The OX40 site is in the CH3 domain; also called FS20-22-47 Fcab in mock (4420 LALA) mAb^2 format
B3: FS20-22-49AA/4420 (bispecific antibody, human IgG1, kappa, L234A L235A)
heavy: B2 heavy with S419N, G421A
light: B2 light
notes: Human IgG1 with anti-FITC 4420 Fab and LALA; The OX40 site is in the CH3 domain; also called FS20-22-49 Fcab in mock (4420 LALA) mAb^2 format; FS20-22-49/4420 (LALA)
B4: FS20-22-85AA/4420 (bispecific antibody, human IgG1, kappa, L234A L235A)
heavy: B2 heavy with V413L, S419N, G421F, Y423D
light: B2 light
notes: Human IgG1 with anti-FITC 4420 Fab and LALA; The OX40 site is in the CH3 domain; also called FS20-22-85 Fcab in mock (4420 LALA) mAb^2 format
B5: FS20-31-102AA/4420 (bispecific antibody, human IgG1, kappa, L234A L235A)
heavy: EVKLDETGGGLVQPGRPMKLSCVASGFTFSDYWMNWVRQSPEKGLEWVAQIRNKPYNYETYYSDSVKGRFTISRDDSKSSVYLQMNNLRVEDMGIYYCTGSYYGMDYWGQGTSVTVSSASTKGPSVFPLAPSSKSTSGGTAALGCLVKDYFPEPVTVSWNSGALTSGVHTFPAVLQSSGLYSLSSVVTVPSSSLGTQTYICNVNHKPSNTKVDKKVEPKSCDKTHTCPPCPAPEAAGGPSVFLFPPKPKDTLMISRTPEVTCVVVDVSHEDPEVKFNWYVDGVEVHNAKTKPREEQYNSTYRVVSVLTVLHQDWLNGKEYKCKVSNKALPAPIEKTISKAKGQPREPQVYTLPPSRDEWASGEVSLTCLVKGFYPSDIAVEWESNGQPEVDYKTTPPVLDSDGSFFLYSKLTVPYWRWGVPRTFSCSVMHEALHNHYTQKSLSLSPG
light: B2 light
notes: Human IgG1 with anti-FITC 4420 Fab and LALA; The OX40 site is in the CH3 domain; also called FS20-31-102 Fcab in mock (4420 LALA) mAb^2 format
B6: FS20-31-94AA/4420 (bispecific antibody, human IgG1, kappa, L234A L235A)
heavy: B5 heavy with A360E, S361H, Q387I, P388R, V390H, V420G, R422G
light: B2 light
notes: Human IgG1 with anti-FITC 4420 Fab and LALA; also called FS20-31-94 Fcab in mock (4420 LALA) mAb^2 format
B7: FS20-31-108AA/4420 (bispecific antibody, human IgG1, kappa, L234A L235A)
heavy: B5 heavy with Q387E, P388K, V390I, V420A, P421K
light: B2 light
notes: Human IgG1 with anti-FITC 4420 Fab and LALA; The OX40 site is in the CH3 domain; also called FS20-31-108 Fcab in mock (4420 LALA) mAb^2 format
B8: FS20-31-115AA/4420 (bispecific antibody, human IgG1, kappa, L234A L235A)
heavy: B5 heavy with Q387E, P388Q, V390F, V420A, P421K
light: B2 light
notes: Human IgG1 with anti-FITC 4420 Fab and LALA; The OX40 site is in the CH3 domain; also called FS20-31-115 Fcab in mock (4420 LALA) mAb^2 format
B9: Fcab FS20-22 (designed binder)
chain: TCPPCPAPELLGGPSVFLFPPKPKDTLMISRTPEVTCVVVDVSHEDPEVKFNWYVDGVEVHNAKTKPREEQYNSTYRVVSVLTVLHQDWLNGKEYKCKVSNKALPAPIEKTISKAKGQPREPQVYTLPPSRDEYWDQEVSLTCLVKGFYPSDIAVEWESNGQPENNYKTTPPVLDSDGSFFLYSKLTVDQYRWNPGGYFSCSVMHEALHNHYTQKSLSLSPG
notes: Soluble Fcab
B10: Fcab FS20-31 (designed binder)
chain: TCPPCPAPELLGGPSVFLFPPKPKDTLMISRTPEVTCVVVDVSHEDPEVKFNWYVDGVEVHNAKTKPREEQYNSTYRVVSVLTVLHQDWLNGKEYKCKVSNKALPAPIEKTISKAKGQPREPQVYTLPPSRDEYYSGEVSLTCLVKGFYPSDIAVEWESNGQPENDYKTTPPVLDSDGSFFLYSKLTVPYWRWGGPGTFSCSVMHEALHNHYTQKSLSLSPG
notes: Soluble Fcab

target: T1, mouse OX40 receptor, cell-expressed …; assay: cell-based or functional assay

Binder | EC50 of IL-2 release, Xlink (anti-hCH2)
B1 | 0.463 nM

target: T2, human TNFRI; assay: SPR (Biacore T200), receptor on CM5 chip

Binder | binding result
B2 | no binding (tested: 1 µM)
B3 | no binding (tested: 1 µM)
B4 | no binding (tested: 1 µM)
B5 | no binding (tested: 1 µM)
B6 | no binding (tested: 1 µM)
B7 | no binding (tested: 1 µM)
B8 | no binding (tested: 1 µM)

target: T3, human NGFR; assay: SPR (Biacore T200), receptor on CM5 chip

Binder | binding result
B2 | no binding (tested: 1 µM)
B3 | no binding (tested: 1 µM)
B4 | no binding (tested: 1 µM)
B5 | no binding (tested: 1 µM)
B6 | no binding (tested: 1 µM)
B7 | no binding (tested: 1 µM)
B8 | no binding (tested: 1 µM)

target: T6, human CD40 (human, UniProt P25942 21-193, limits assumed); assay: SPR (Biacore T200), receptor on CM5 chip
T6 construct: Amine-coupled to a CM5 chip
T6 sequence (P25942 21-193 limits assumed): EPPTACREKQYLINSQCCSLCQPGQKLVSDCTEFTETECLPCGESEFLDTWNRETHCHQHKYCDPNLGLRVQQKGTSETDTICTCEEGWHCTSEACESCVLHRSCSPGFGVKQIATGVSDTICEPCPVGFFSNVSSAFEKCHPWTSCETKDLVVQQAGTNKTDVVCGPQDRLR

Binder | binding result
B2 | no binding (tested: 1 µM)
B3 | no binding (tested: 1 µM)
B4 | no binding (tested: 1 µM)
B5 | no binding (tested: 1 µM)
B6 | no binding (tested: 1 µM)
B7 | no binding (tested: 1 µM)
B8 | no binding (tested: 1 µM)

target: T4, human TNFRII; assay: SPR (Biacore T200), receptor on CM5 chip

Binder | binding result
B2 | no binding (tested: 1 µM)
B3 | no binding (tested: 1 µM)
B4 | no binding (tested: 1 µM)
B5 | no binding (tested: 1 µM)
B6 | no binding (tested: 1 µM)
B7 | no binding (tested: 1 µM)
B8 | no binding (tested: 1 µM)

target: T7, human CD137 (human, UniProt Q07011 24-186, limits assumed); assay: SPR (Biacore T200), receptor on CM5 chip
T7 construct: Amine-coupled to a CM5 chip; also called 4-1BB

Binder | binding result
B2 | no binding (tested: 1 µM)
B3 | no binding (tested: 1 µM)
B4 | no binding (tested: 1 µM)
B5 | no binding (tested: 1 µM)
B6 | no binding (tested: 1 µM)
B7 | no binding (tested: 1 µM)
B8 | no binding (tested: 1 µM)

target: T1, mouse OX40 receptor, cell-expressed …; assay: cell-based or functional assay; remark: another data set of the same source

Binder | EC50 of IL-2 release, crosslinked (anti-human CH2 mAb)
B1 | 1.75 nM

target: T5, human OX40 receptor, cell-expressed …; assay: cell binding, DO11.10-hOX40 cells, soluble Fcab

Binder | binding result
B9 | binds
B10 | binds

target: T1, mouse OX40 receptor, cell-expressed …; assay: flow cytometry on DO11.10-mOX40 cells
Experimental: Non-specific binding was also assessed by testing for binding to HEK cells not expressing OX40 by flow cytometry.
DO11.10 mOX40 or HEK cell suspensions were prepared in PBS+2% BSA (Sigma, A7906) and seeded at 4×10⁶ cell/ml with 50 μl/well in V-bottomed 96-well plates (Costar, 3897). […] The data was fit using log (agonist) vs response in GraphPad Prism Software.

Binder | EC50
B1 | 3.1 nM
